Assay results as given in US20140105889A1 (published 2014).

T1: human FcγRIIa(R) (human, UniProt P12318 36-217)
T1 construct: Analyte in solution on Biacore; also called FcγRIIa type R; FcgRIIaR
T1 chain: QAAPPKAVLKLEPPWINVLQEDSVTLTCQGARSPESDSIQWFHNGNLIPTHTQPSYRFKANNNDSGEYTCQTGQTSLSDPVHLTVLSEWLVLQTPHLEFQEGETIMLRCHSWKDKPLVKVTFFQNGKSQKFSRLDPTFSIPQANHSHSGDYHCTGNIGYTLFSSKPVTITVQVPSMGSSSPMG

T2: human FcγRIIa(H) (human, UniProt P12318 36-217)
T2 construct: Analyte in solution on Biacore; also called FcγRIIa type H; FcgRIIaH
T2 sequence: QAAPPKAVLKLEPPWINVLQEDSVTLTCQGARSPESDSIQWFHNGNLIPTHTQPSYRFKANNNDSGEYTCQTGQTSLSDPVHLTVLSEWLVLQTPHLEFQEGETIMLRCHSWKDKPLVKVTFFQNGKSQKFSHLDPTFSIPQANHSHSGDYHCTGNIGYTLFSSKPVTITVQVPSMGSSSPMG

T3: human FcγRIIb (human, UniProt P31994 43-217, limits assumed)
T3 construct: Analyte in solution on Biacore; also called FcgRIIb; hFcgRIIb
T3 sequence: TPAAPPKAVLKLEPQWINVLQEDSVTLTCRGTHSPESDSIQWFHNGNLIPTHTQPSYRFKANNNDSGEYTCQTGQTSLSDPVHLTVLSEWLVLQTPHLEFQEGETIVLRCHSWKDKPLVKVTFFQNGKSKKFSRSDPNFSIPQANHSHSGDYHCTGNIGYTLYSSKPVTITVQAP

T4: human FcγRIIb (human, UniProt P31994 43-217)
T4 construct: also called FcγIIB; FcγRIIb extracellular region
T4 sequence: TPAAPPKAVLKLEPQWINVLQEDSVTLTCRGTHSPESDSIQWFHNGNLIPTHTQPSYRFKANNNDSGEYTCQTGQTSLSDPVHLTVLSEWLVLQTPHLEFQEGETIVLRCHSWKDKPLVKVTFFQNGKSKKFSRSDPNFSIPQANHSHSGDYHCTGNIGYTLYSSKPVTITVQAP

T5: human FcγRIIa type R (human, UniProt P12318 36-217)
T5 construct: also called Fcγ RIIaR; FcγRIIa(R)
T5 chain: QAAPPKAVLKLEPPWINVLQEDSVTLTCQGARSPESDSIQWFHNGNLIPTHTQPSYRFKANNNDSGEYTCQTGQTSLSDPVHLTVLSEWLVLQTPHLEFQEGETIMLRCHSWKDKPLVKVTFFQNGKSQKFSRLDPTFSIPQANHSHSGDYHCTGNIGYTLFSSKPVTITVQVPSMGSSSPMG

B1: GpH7-B3 variant P329S / GpL16-k0 (antibody, human IgG1)
heavy: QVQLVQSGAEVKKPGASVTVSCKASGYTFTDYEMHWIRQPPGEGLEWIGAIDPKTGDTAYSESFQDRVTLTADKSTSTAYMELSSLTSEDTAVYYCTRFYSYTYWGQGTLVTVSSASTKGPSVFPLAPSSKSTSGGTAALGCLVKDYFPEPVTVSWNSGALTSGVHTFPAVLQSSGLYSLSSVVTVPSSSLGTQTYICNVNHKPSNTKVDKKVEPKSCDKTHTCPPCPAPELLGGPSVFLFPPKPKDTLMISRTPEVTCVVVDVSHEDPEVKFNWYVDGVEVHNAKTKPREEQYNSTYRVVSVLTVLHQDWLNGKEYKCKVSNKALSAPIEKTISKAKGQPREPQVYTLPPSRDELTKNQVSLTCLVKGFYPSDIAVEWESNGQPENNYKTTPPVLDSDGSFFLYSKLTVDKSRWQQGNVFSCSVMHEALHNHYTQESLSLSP
light: DIVMTQSPLSLPVTPGEPASISCQASESLVHSNRNTYLHWYLQKPGQSPQLLIYKVSNRFSGVPDRFSGSGSGTDFTLKISRVEAEDVGVYYCSQNTHVPPTFGQGTKVEIE
notes: Anti-glypican-3 IgG1; constant region B3 = G1d with K439E
B2: GpH7-B3 variant I332R / GpL16-k0 (antibody, human IgG1)
heavy: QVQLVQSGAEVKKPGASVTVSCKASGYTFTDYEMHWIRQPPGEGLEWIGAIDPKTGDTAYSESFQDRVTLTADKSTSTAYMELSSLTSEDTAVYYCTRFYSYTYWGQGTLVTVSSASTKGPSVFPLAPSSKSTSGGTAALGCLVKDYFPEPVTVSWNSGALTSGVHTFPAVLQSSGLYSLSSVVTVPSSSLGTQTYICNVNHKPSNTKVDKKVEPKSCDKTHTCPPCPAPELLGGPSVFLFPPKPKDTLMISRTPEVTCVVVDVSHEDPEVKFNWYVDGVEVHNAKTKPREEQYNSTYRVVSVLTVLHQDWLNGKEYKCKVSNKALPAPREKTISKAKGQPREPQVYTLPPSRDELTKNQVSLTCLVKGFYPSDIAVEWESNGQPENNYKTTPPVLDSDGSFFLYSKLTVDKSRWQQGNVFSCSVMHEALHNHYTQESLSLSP
light: DIVMTQSPLSLPVTPGEPASISCQASESLVHSNRNTYLHWYLQKPGQSPQLLIYKVSNRFSGVPDRFSGSGSGTDFTLKISRVEAEDVGVYYCSQNTHVPPTFGQGTKVEIE
notes: as for B1
B3: GpH7-B3 variant P329Y / GpL16-k0 (antibody, human IgG1)
heavy: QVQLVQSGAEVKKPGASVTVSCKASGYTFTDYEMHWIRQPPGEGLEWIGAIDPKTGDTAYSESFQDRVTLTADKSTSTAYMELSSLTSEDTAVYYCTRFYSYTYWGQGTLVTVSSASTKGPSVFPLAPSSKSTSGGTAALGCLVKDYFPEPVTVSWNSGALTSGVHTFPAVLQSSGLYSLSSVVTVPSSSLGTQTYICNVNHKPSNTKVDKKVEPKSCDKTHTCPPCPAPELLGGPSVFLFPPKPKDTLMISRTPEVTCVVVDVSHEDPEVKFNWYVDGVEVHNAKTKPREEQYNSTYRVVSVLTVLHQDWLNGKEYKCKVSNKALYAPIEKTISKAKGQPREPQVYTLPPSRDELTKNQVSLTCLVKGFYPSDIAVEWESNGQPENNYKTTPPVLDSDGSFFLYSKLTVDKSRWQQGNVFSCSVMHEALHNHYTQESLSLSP
light: DIVMTQSPLSLPVTPGEPASISCQASESLVHSNRNTYLHWYLQKPGQSPQLLIYKVSNRFSGVPDRFSGSGSGTDFTLKISRVEAEDVGVYYCSQNTHVPPTFGQGTKVEIE
notes: as for B1
B4: GpH7-B3 variant P331K / GpL16-k0 (antibody, human IgG1)
heavy: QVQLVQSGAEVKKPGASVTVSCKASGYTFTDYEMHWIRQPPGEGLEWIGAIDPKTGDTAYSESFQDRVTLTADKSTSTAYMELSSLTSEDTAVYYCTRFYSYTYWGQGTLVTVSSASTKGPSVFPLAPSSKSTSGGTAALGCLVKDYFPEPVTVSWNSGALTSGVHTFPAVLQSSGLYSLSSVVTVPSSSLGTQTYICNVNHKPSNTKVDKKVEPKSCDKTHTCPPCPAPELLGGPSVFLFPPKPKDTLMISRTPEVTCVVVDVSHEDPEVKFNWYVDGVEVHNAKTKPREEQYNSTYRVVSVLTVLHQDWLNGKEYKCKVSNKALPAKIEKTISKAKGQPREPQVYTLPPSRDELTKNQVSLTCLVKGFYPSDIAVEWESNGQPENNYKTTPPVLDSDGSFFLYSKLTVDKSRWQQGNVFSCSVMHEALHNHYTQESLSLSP
light: DIVMTQSPLSLPVTPGEPASISCQASESLVHSNRNTYLHWYLQKPGQSPQLLIYKVSNRFSGVPDRFSGSGSGTDFTLKISRVEAEDVGVYYCSQNTHVPPTFGQGTKVEIE
notes: as for B1
B5: GpH7-B3 variant P329D / GpL16-k0 (antibody, human IgG1)
heavy: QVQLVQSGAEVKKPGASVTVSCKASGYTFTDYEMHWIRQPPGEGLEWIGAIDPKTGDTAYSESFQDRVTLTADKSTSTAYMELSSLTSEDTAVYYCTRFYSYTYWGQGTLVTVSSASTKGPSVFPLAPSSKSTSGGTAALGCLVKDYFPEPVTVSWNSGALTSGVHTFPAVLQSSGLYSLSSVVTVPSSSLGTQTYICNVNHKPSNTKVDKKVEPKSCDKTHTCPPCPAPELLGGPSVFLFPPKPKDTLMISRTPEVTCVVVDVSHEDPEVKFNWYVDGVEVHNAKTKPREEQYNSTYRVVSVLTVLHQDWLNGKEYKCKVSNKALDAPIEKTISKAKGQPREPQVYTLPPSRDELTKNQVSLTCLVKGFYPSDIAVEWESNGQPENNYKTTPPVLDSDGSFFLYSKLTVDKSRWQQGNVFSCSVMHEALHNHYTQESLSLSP
light: DIVMTQSPLSLPVTPGEPASISCQASESLVHSNRNTYLHWYLQKPGQSPQLLIYKVSNRFSGVPDRFSGSGSGTDFTLKISRVEAEDVGVYYCSQNTHVPPTFGQGTKVEIE
notes: as for B1
B6: GpH7-B3 variant P329G / GpL16-k0 (antibody, human IgG1)
heavy: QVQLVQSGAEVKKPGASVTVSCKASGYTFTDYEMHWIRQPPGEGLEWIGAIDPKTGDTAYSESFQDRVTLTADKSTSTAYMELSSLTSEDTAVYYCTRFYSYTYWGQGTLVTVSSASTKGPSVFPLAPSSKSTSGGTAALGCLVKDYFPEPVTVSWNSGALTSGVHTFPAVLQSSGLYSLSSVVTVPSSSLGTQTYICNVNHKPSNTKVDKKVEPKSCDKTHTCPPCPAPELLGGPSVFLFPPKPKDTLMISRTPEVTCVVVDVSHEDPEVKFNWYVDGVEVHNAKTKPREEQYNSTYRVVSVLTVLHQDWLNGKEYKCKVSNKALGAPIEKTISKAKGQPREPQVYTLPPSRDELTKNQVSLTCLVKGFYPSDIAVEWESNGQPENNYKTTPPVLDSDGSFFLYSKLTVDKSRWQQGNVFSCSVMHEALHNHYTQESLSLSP
light: DIVMTQSPLSLPVTPGEPASISCQASESLVHSNRNTYLHWYLQKPGQSPQLLIYKVSNRFSGVPDRFSGSGSGTDFTLKISRVEAEDVGVYYCSQNTHVPPTFGQGTKVEIE
notes: as for B1
B7: GpH7-B3 variant P331R / GpL16-k0 (antibody, human IgG1)
heavy: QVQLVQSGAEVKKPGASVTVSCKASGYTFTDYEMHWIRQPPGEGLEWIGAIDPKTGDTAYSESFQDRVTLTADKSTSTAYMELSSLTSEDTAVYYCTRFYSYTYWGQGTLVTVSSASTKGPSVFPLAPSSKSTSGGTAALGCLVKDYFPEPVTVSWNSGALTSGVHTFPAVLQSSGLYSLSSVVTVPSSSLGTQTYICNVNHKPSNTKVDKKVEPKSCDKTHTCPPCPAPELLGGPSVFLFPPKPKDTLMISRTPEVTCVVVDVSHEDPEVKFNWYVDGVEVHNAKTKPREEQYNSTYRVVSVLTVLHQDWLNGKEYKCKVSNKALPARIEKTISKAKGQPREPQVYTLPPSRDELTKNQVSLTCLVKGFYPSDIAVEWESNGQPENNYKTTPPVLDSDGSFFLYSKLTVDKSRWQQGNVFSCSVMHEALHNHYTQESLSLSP
light: DIVMTQSPLSLPVTPGEPASISCQASESLVHSNRNTYLHWYLQKPGQSPQLLIYKVSNRFSGVPDRFSGSGSGTDFTLKISRVEAEDVGVYYCSQNTHVPPTFGQGTKVEIE
notes: as for B1
B8: GpH7-B3 variant I332P / GpL16-k0 (antibody, human IgG1)
heavy: not shown
light: DIVMTQSPLSLPVTPGEPASISCQASESLVHSNRNTYLHWYLQKPGQSPQLLIYKVSNRFSGVPDRFSGSGSGTDFTLKISRVEAEDVGVYYCSQNTHVPPTFGQGTKVEIE
notes: as for B1
B9: GpH7-B3 variant P329E / GpL16-k0 (antibody, human IgG1)
heavy: not shown
light: DIVMTQSPLSLPVTPGEPASISCQASESLVHSNRNTYLHWYLQKPGQSPQLLIYKVSNRFSGVPDRFSGSGSGTDFTLKISRVEAEDVGVYYCSQNTHVPPTFGQGTKVEIE
notes: as for B1
B10: GpH7-B3 variant A330S / GpL16-k0 (antibody, human IgG1)
heavy: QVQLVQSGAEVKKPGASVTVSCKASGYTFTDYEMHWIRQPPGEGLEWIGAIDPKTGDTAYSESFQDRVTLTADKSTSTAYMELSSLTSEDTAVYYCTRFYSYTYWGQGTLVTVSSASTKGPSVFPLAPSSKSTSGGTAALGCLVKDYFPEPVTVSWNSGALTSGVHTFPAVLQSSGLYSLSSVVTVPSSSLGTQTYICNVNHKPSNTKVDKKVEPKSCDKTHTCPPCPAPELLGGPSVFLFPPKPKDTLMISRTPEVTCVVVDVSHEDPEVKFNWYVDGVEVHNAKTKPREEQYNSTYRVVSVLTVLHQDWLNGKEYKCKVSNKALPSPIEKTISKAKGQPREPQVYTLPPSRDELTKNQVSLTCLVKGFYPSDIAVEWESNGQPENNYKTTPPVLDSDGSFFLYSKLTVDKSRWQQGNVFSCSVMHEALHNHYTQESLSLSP
light: DIVMTQSPLSLPVTPGEPASISCQASESLVHSNRNTYLHWYLQKPGQSPQLLIYKVSNRFSGVPDRFSGSGSGTDFTLKISRVEAEDVGVYYCSQNTHVPPTFGQGTKVEIE
notes: as for B1
B11: GpH7-B3 variant P329W / GpL16-k0 (antibody, human IgG1)
heavy: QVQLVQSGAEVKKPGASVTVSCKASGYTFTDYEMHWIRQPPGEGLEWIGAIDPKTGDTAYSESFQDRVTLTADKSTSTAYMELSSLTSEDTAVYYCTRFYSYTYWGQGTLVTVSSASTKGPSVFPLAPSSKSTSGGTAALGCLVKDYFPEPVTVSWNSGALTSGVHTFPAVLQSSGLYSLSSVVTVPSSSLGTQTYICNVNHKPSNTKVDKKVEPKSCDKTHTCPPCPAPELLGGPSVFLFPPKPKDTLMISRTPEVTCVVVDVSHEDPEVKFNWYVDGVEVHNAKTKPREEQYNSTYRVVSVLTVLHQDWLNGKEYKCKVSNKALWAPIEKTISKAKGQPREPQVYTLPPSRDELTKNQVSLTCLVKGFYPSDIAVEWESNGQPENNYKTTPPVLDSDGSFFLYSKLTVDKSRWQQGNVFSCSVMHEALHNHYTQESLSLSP
light: DIVMTQSPLSLPVTPGEPASISCQASESLVHSNRNTYLHWYLQKPGQSPQLLIYKVSNRFSGVPDRFSGSGSGTDFTLKISRVEAEDVGVYYCSQNTHVPPTFGQGTKVEIE
notes: as for B1
B12: GpH7-B3 variant A330P / GpL16-k0 (antibody, human IgG1)
heavy: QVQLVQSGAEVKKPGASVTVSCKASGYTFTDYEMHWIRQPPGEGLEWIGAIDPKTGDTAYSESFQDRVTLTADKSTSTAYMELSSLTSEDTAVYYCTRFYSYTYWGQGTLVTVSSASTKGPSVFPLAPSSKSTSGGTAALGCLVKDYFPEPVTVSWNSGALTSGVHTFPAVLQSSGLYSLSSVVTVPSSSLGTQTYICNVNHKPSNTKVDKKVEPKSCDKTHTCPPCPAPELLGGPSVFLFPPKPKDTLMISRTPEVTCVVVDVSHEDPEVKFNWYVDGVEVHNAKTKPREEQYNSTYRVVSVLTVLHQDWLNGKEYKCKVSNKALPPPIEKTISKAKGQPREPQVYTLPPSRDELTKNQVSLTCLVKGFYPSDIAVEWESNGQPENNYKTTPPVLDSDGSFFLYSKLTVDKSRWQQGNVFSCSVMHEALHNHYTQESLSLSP
light: DIVMTQSPLSLPVTPGEPASISCQASESLVHSNRNTYLHWYLQKPGQSPQLLIYKVSNRFSGVPDRFSGSGSGTDFTLKISRVEAEDVGVYYCSQNTHVPPTFGQGTKVEIE
notes: as for B1
B13: IL6R-F652/IL6R-L (antibody, human IgG1)
heavy: QVQLQESGPGLVKPSETLSLTCAVSGHSISHDHAWSWVRQPPGEGLEWIGFISYSGITNYNPSLQGRVTISRDNSKNTLYLQMNSLRAEDTAVYYCARSLARTTAMDYWGEGTLVTVSSASTKGPSVFPLAPSSKSTSGGTAALGCLVKDYFPEPVTVSWNSGALTSGVHTFPAVLQSSGLYSLSSVVTVPSSSLGTQTYICNVNHKPSNTKVDKKVEPKSCDKTHTCPPCPAPELLGGDSVFLFPPKPKDTLYISRTPEVTCVVVDVSHEDPEVKFNWYVDGVEVHNAKTKPREEQYNSTYRVVSVLTVLHQDWLNGKEYKCKVSNKALPAPIEKTISKAKGQPREPQVYTLPPSRDELTKNQVSLTCLVKGFYPSDIAVEWESNGQPENNYKTTPPVLDSDGSFFLYSKLTVDKSRWQQGNVFSCSVMHEALHYHYTQKSLSLSP
light: DIQMTQSPSSLSASVGDRVTITCRASQDISSYLNWYQQKPGKAPKLLIYYTSRLHSGVPSRFSGSGSGTDFTFTISSLQPEDIATYYCQQGNTLPYTFGQGTKVEIK
notes: Anti-human IL-6 receptor IgG1 antibody; H chain is IL6R-F11 (M252Y/N434Y in IL6R-G1d) with P238D (EU numbering); Control antibody of the PD variants; copies: 2 + 2
B14: IL6R-PD042/IL6R-L (antibody, human IgG1)
heavy: QVQLQESGPGLVKPSETLSLTCAVSGHSISHDHAWSWVRQPPGEGLEWIGFISYSGITNYNPSLQGRVTISRDNSKNTLYLQMNSLRAEDTAVYYCARSLARTTAMDYWGEGTLVTVSSASTKGPSVFPLAPSSKSTSGGTAALGCLVKDYFPEPVTVSWNSGALTSGVHTFPAVLQSSGLYSLSSVVTVPSSSLGTQTYICNVNHKPSNTKVDKKVEPKSCDKTHTCPPCPAPEWLGGDSVFLFPPKPKDTLYISRTPEVTCVVVDVSHEDPEVKFNWYVDGVEVHNAKTKPREEQYNSTYRVVSVLTVLHQDWLNGKEYKCKVSNKALPAPIEKTISKAKGQPREPQVYTLPPSRDELTKNQVSLTCLVKGFYPSDIAVEWESNGQPENNYKTTPPVLDSDGSFFLYSKLTVDKSRWQQGNVFSCSVMHEALHYHYTQKSLSLSP
light: DIQMTQSPSSLSASVGDRVTITCRASQDISSYLNWYQQKPGKAPKLLIYYTSRLHSGVPSRFSGSGSGTDFTFTISSLQPEDIATYYCQQGNTLPYTFGQGTKVEIK
notes: PD variant: P238D/L234W introduced into IL6R-F11 (EU numbering); copies: 2 + 2

What was measured:
human FcγRIa = molecular target: T6, human FcγRIa (human, UniProt P12314 16-292, limits assumed); test: SPR (Biacore), antibody captured on chip, FcγR as analyte, HBS-EP+, 25°C;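 also: FcγR binding response divided by the amount of captured antibody, then expressed relative to the reference antibody ×100, with antibodies captured via immobilized Protein A, A/G, L or antigen peptides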
T6 construct: Analyte in solution on Biacore; also called FcgRIa; hFcgRIa
T6 sequence (P12314 16-292 limits assumed): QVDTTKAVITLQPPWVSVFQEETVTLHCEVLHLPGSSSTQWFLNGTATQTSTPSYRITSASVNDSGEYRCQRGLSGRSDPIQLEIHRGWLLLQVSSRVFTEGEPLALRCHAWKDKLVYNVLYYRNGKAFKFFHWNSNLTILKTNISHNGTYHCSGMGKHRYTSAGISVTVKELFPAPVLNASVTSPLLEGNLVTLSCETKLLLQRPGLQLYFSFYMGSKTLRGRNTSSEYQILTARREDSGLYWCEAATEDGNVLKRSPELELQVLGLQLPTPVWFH
Protocol: (§1) Interaction between each modified antibody and Fcγ receptor prepared in the manner described above was analyzed using the Biacore T100 (GE Healthcare), Biacore T200 (GE Healthcare), Biacore A100 or Biacore 4000. HBS-EP+ (GE Healthcare) was used for the running buffer, and measurements were carried out at 25° C. The chips used were chips in which antigen peptides, Protein A (Thermo Scientific), Protein A/G (Thermo Scientific) or Protein L (ACTIGEN or BioVision) were immobilized on the Series S Sensor Chip CM5 (GE Healthcare) or Series S Sensor Chip CM4 (GE Healthcare) by amine coupling, or chips in which preliminarily biotinylated antigen peptides were allowed to interact and then immobilized on the Series S Sensor Chip SA (certified) (GE Healthcare). The target antibodies were captured on these sensor chips, Fcγ receptor diluted with the running buffer was allowed to interact, followed by measurement of the amount of bound antibody. The amounts bound were compared between antibodies. However, since the amount of Fcγ receptor bound depends on the amount of captured antibody, the values used for comparison were first corrected by dividing the amount of Fcγ receptor bound by the captured amount of each antibody. Through reaction with 10 mM glycine-HCl at pH 1.5, the sensor chips were regenerated by washing off antibody captured on the sensor chips and used repeatedly.
(§2) Binding strength was evaluated according to the following method based on the results of analyzing the interaction with each FcγR. […] That value was then further multiplied by 100, and the resulting value was used as an indicator of relative binding activity to each FcγR.

human FcγRIIa(R) = molecular target: T1, human FcγRIIa(R); test: as above
Protocol: as §1, §2

human FcγRIIa(H) = molecular target: T2, human FcγRIIa(H); test: as above
Protocol: as §1, §2

human FcγRIIb [1] = molecular target: T3, human FcγRIIb; test: as above
Protocol: as §1, §2

human FcγRIIIa(F) = molecular target: T7, human FcγRIIIa(F) (human, UniProt P08637 17-208, limits assumed); test: as above
T7 construct: also called FcgRIIIaF; hFcgRIIIa(F)
T7 sequence (P08637 other isoform, or with tags, fused parts or gaps limits assumed): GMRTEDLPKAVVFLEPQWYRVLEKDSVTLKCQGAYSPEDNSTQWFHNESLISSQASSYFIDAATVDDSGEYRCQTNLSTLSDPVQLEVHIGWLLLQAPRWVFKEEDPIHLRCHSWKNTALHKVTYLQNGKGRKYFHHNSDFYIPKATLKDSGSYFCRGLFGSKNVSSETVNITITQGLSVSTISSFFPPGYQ
Protocol: as §1, §2

human FcγRIIb [2] = molecular target: T4, human FcγRIIb; test: SPR (Biacore), antibody captured on chip, FcγR as analyte; binding amount divided by that of IL6R-F652/IL6R-L, times 100
human FcγRIIa type R = molecular target: T5, human FcγRIIa type R; test: as above

| Binder | relative binding activity (% of GpH7-B3/GpL16-k0) (human FcγRIa) [%] | relative binding activity (% of GpH7-B3/GpL16-k0) (human FcγRIIa(R)) [%] | relative binding activity (% of GpH7-B3/GpL16-k0) (human FcγRIIa(H)) [%] | relative binding activity (% of GpH7-B3/GpL16-k0) (human FcγRIIb [1]) [%] | relative binding activity (% of GpH7-B3/GpL16-k0) (human FcγRIIIa(F)) [%] | relative binding activity for FcγRIIb (human FcγRIIb [2]) | relative binding activity for FcγRIIaR (human FcγRIIa type R) |
| --- | --- | --- | --- | --- | --- | --- | --- |
| B1 | 60 | 0 | 1 | -1 | 1 | – | – |
| B2 | 95 | 28 | 70 | 23 | 61 | – | – |
| B3 | 76 | -1 | 0 | -3 | 0 | – | – |
| B4 | 98 | 72 | 58 | 63 | 34 | – | – |
| B5 | 23 | -1 | -1 | -2 | -1 | – | – |
| B6 | 92 | 1 | 1 | 0 | 4 | – | – |
| B7 | 95 | 64 | 59 | 55 | 38 | – | – |
| B8 | 100 | 34 | 26 | 41 | 14 | – | – |
| B9 | 33 | -1 | 0 | -2 | -1 | – | – |
| B10 | 58 | 0 | 0 | -3 | 0 | – | – |
| B11 | 94 | 1 | 0 | 0 | 0 | – | – |
| B12 | 87 | 42 | 25 | 39 | 56 | – | – |
| B13 | – | – | – | – | – | 100 % of the binding amount of IL6R-F652/IL6R-L | 100 % of the binding amount of IL6R-F652/IL6R-L |
| B14 | – | – | – | – | – | 106 % of the binding amount of IL6R-F652/IL6R-L | 240 % of the binding amount of IL6R-F652/IL6R-L |
